Test system: MS2 coat protein
Assay: apparent KD of MS2 coat protein; designed switch direction (-1 OFF switch, 1 ON switch): -1; higher = weaker reporter binding
Outline: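 The buffer was Tris-HCl pH 7.5 with KCl, MgCl2, BSA, DTT, tRNA and Tween-20. In it, SNAP-549-labelled MS2 coat protein was titrated in doubling steps from 0.7 or 1.5 nM to 3 µM over chip-bound RNA switches transcribed by stalled E. coli RNA polymerase on Illumina chips. Apparent KD is the per-design median over clusters of curve fits to normalised fluorescence.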

[1] = input ligand: microRNA oligo, concentration not stated
[2] = Eterna round: R95, input ligand: FMN 200 uM
[3] = Eterna round: R95, input ligand: microRNA oligo, concentration not stated
[4] = Eterna round: R95, input ligand: none

| Sequence | apparent KD of MS2 coat protein (input ligand: FMN 200 uM) | apparent KD of MS2 coat protein (input ligand: none) | apparent KD of MS2 coat protein [1] | apparent KD of MS2 coat protein [2] | apparent KD of MS2 coat protein [3] | apparent KD of MS2 coat protein [4] |
| --- | --- | --- | --- | --- | --- | --- |
| GCUAGGAGUGUGAGGAUAUGCUGUUCCUUGGAACAGCAGAAGGCACAUGAGGAUCACCCAUGUGAAGACCUAGC [Mat - Exclusion 4 - JL Mod - D3] (Eterna round: R97, puzzle: Brourd's mod of Exclusion 4) | 149 nM | 24.5 nM |  |  |  |  |
| GCUCGCGGGCAAGGAUAUCCUACGCUGUUCUGGUUCGUGUCUGUUACAUGAGGAUCACCCAUGUGGGAGAAGGUGCACCAGGGC [Design 48] (Eterna round: R96, puzzle: Exclusion NG 2) | 13.7 nM | 14.7 nM | 9.98 nM |  |  |  |
| GCUGCAUCAGGAUAUAUACGGUAUCACAUGAGGAUCACCCAUGUUCGUGUGGAACUGAACGUAGAAGGGAUUAGAU [Aramaa] (puzzle: Exclusion 5) |  |  |  | 31.1 nM | 28.3 nM | 24.5 nM |
| GCUGCGCGAGGAUAUGCGGUUUGUGCUUUGGCCCGUGGCGUACAUGAGGAUCACCCAUGUAGAAGGCGUGUGGG [Apr-15 SS2-53] (puzzle: Exclusion 2) |  |  |  |  | 18.1 nM |  |
| GCUGGUCGAGGAUAUACAUGAGGAUCACCCAUGUAGAUCAACCAGCGAUAGCUGGAAUGUAGAAGGUGACCAGC [E3/5-B1] (Eterna round: R97, puzzle: Exclusion 3) | 21.9 nM | 15.9 nM |  |  |  |  |
| GCUGGUCGAGGAUAUACAUGAGGAUCACCCAUGUGAUUAGCAGUCCUCGGACUGCAAUGUAGAAGGCGACCAGC [E3/2-A1] (Eterna round: R97, puzzle: Exclusion 3) | 620 nM | 439 nM |  |  |  |  |
| GCUUAUAGAGGAUAUACAGAUUAUUACAUGAGGAUCACCCAUGUUCUUCAAUGUAUAUAUGUAGAAGGCUAAGGAG [Mat - Exclusion 5 - JL Mod - D11] (Eterna round: R97, puzzle: Exclusion 5) | 175 nM | 63.2 nM |  |  |  |  |
| GCUUGUAGAGGAUAUACGAGGGCCCGAGCGGAUAACACCGCACAUGAGGAUCACCCAUGUAGAAGGCUACUAUU [JL-ex2-4.18 ViennaUCT mod] (Eterna round: R97, puzzle: Exclusion 2) | 96 nM | 105 nM |  |  |  |  |
| GCUUGUGCCCUAGGAUAUCGCCCAGCCAAUGGAUGAGAAGGAGGCGGGUGAAACAUGAGGAUCACCCAUGUAAACGCACAGGCG [Erdiusbi] (Eterna round: R96, puzzle: Exclusion NG 1) | 189 nM | 21.9 nM | 18 nM |  |  |  |
| GGAAAAAUAUAGGAUAUGGGAGGGAGGACCGAACCAGAAGGAUAGACAUGAGGAUCACCCAUGUAAAGAUCCUC [AK-MS2ROC-r4-exclusion6-6] (Eterna round: R97, puzzle: Exclusion 6) | 377 nM | 204 nM |  |  |  |  |
| GGAAAACAUGAGGAUCACCCAUGUGAGGAUAUGCGUACGUUGUCCGUAGGCGACGUGCGCAGAAGGCGCAAGAG [Mat - Mod of JL D89] (puzzle: Exclusion 1) |  |  |  | 57.4 nM | 48.5 nM | 58.1 nM |
| GGAACGCGAGGAUAUACAUAGCCGGAAACGGCAAUAGCCUCACAUGAGGAUCACCCAUGUAGAAGGCGCGGAGA [AK-MS2ROC-r4-exclusion2-24] (Eterna round: R97, puzzle: Exclusion 2) | 119 nM | 17.2 nM |  |  |  |  |
| GGAAGAAAGCGAGGAUAUCGAUAAGAAGAAGAAGAUAAGGUGACAUGAGGAUCACCCAUGUAAUACGAGAAGGCGCGACCUGCG [i'd better go back to my homework] (Eterna round: R96, puzzle: Exclusion NG 2) | 215 nM | 197 nM | 147 nM |  |  |  |
| GGACAUAAAGUCAGGAUAUUAAUGCGAACAAGCGAUGAGAAGGGACAUGAGGAUCACCCAUGUGAUUCUCAUCA [Edvebe] (Eterna round: R97, puzzle: Brourd's mod of Exclusion 4) | 17.6 nM | 16.5 nM |  |  |  |  |
| GGAGAGUCAGGAUAUCGAAGGUAGUGGAGAGGAGUGUGGUACGAGAAGGGACAUGAGGAUCACCCAUGUAGGUG [JR_Exclusion4)Sub010] (puzzle: Exclusion 4) |  |  |  | 306 nM | 423 nM | 478 nM |
| GGAGGAAGAGAGGAUAUGGAGGAGAGGAGAAGACCAGAAGGUUCAACAUGAGGAUCACCCAUGUAUGAUCCUCA [AK-MS2ROC-r4-exclusion6-1.1] (Eterna round: R97, puzzle: Exclusion 6) | 789 nM | 694 nM |  |  |  |  |
| GGAGGACGAGCAGGAUAUUUUUACAUGAGGAUCACCCAUGUGUAAUCAGGGUAAUCCUCCGCCGAAAAGAAGGGUUCGGAAGAA [Mat - Exclusion NG 2 - Mod of JL - D83] (Eterna round: R96, puzzle: Exclusion NG 2) | 2750 nM | 67.6 nM | 16.9 nM |  |  |  |
| GGAUAAAACUGAGGAUAUGCGUAUAGAUAGAGAGCAGAAGGCAGACAUGAGGAUCACCCAUGUGAGUUCUCGAUAAGAAACACG [Prohibition 58 - Jieux - Exclusion NG 1] (Eterna round: R96, puzzle: Exclusion NG 1) | 118 nM | 35.2 nM | 36.1 nM |  |  |  |
| GGAUAGUGAGGAUAUACCCAGAUUGAUGGACACGUCAGCGGGUAGAAGGCACAUGAGGAUCACCCAUGUGGCCU [Eternabot (L1) Solution 22] (Eterna round: R97, puzzle: Exclusion 4) | 18.4 nM | 14.1 nM |  |  |  |  |
| GGAUCGAAUGUGAGGAUAUACCACUGGAUACAGUGGUAGAAGGCACAUGAGGAUCACCCAUGUCUCUACGAUCC [Fiskers BMX 4 - 43] (puzzle: Brourd's mod of Exclusion 4) |  |  |  |  | 21 nM |  |
| GGAUCGAAUGUGAGGAUAUGCAGGUCCUUGGAUCUGCAGAAGGCACAUGAGGAUCACCCAUGUGAUACCGAUCC [Mat - Exclusion 4 - Eli Mod - D42] (Eterna round: R97, puzzle: Brourd's mod of Exclusion 4) | 148 nM | 455 nM |  |  |  |  |
| GGAUCGAGUGUGAGGAUAUACCUAUGGAAACAUAGGUAGAAGGCACAUGAGGAUCACCCAUGUGUUCCCGGUCC [Mat - Exclusion 4 - Eli Mod - D16] (Eterna round: R97, puzzle: Brourd's mod of Exclusion 4) | 485 nM | 50.8 nM |  |  |  |  |
| GGAUCGAGUGUGAGGAUAUACCUAUGGAUACAUAGGUAGAAGGCACAUGAGGAUCACCCAUGUUCCAACGGUCC [Eli bmx4 4.11] (Eterna round: R97, puzzle: Brourd's mod of Exclusion 4) | 817 nM | 108 nM |  |  |  |  |
| GGAUCUUGGGUCAGGAUAUGCUGAUAUUUUUGUCAGCAGAAGGGACAUGAGGAUCACCCAUGUGCUUGGUUUUG [Magic-16] (puzzle: Brourd's mod of Exclusion 4) |  |  |  |  | 12.6 nM |  |
| GGAUGGCGAGGAUAUACAUGAGGAUCACCCAUGUGAGAGAAAUAAGUGAGGAAGAAAAGUAGAAGGCGCAGACG [Mat - Exclusion 3 - Mod of Salish D45] (puzzle: Exclusion 3) |  |  |  | 11.1 nM | 55.7 nM | 53.1 nM |
| GGAUUACAUGAGGAUCACCCAUGUCAGGAUAUACGAUCAUAUGCCGAAAGGCAUAUGAGUAGAAGGGACAAUAU [AK-MS2ROC-r4-exclusion1-2.0] (Eterna round: R97, puzzle: Exclusion 1) | 46.2 nM | 36.1 nM |  |  |  |  |
| GGAUUCCAGUGAGGAUAUCCAAAUAAAAGCCAUGGAGAAGGCACAUGAGGAUCACCCAUGUAGGGCAAUAGCAGCGACCACUGC [Raqube] (Eterna round: R96, puzzle: Exclusion NG 1) | 59.4 nM | 29.3 nM | 27.6 nM |  |  |  |
| GGCACACAUGAGGAUCACCCAUGUCAGGAUAUGUGGCGAUCGUCGAAAGACGAUAGCCACAGAAGGGACAGGCC [Eli x1 4.25] (Eterna round: R97, puzzle: Exclusion 1) | 68.7 nM | 49.8 nM |  |  |  |  |
| GGCACACAUGAGGAUCACCCAUGUGAGGAUAUGAGGCGAUCGUCGAAAGACGAUAGCCUCAGAAGGCACAUGCC [Eli x1 4.10] (Eterna round: R97, puzzle: Exclusion 1) | 42.9 nM | 16 nM |  |  |  |  |
| GGCACACAUGUAGGAUAUCUGCACGUGUAGUGCAGAGAAGGACAUGAGGAUCACCCAUGUAAUUAAGAUCAAUUAUUAAGUGCC [ENG1/3-A3] (Eterna round: R96, puzzle: Exclusion NG 1) | 481 nM | 58.9 nM | 48.6 nM |  |  |  |

Source: the supplement of paper PMC9170038
